These are literature values, as cited in patent publication US9163073B2, “Chemically and thermodynamically stable insulin analogues and improved methods for their production” (AMIDEBIO LLC, priority 2013, dated 2015).

Data set [1] relates to breast cancer. As to conditions: in vivo.
Data set [2] deals with insulin receptor over the IGF-1R (Homo sapiens, UniProt P06213).
For data set [3] the following is noted: after one year in acidic formulations.

As for “AspB10 insulin: insulin analogue with AspB10 substitution, relatively high affinity for the IGF-1R”, the “induction of breast cancer” value in data set [1] is reported as “induce breast cancer”. As to “native insulin: native two-chain human insulin (A chain SEQ ID NO 2, B chain SEQ ID NO 3)”, the “selectivity for its own receptor over the IGF-1R” value in data set [2] was > 100 fold. In data set [3], the AsnA21 deamidation is recorded as 20-30%.
